Experimental data taken from patent US20230220115A1 (BIOMOLECULAR, published 2023).
Residue numbers refer to the chain shown, from its start.

B1: Rc66SIDE (One-arm antibody) (antibody, human IgG1, kappa)
light: QIVLSQSPAILSASPGEKVTMTCRASSSVSYIHWFQQKPGSSPKPWIYATSNLASGVPVRFSGSGSGTSYSLTISRVEAEDAATYYCQQWTSNPPTFGGGTKLEIKRTVAAPSVFIFPPSDEQLKSGTASVVCLLNNFYPREAKVQWKVDNALQSGNSQESVTEQDSKDSTYSLSSTLTLSKADYEKHKVYACEVTHQGLSSPVTKSFNRGEC
heavy: QVQLQQPGAELVKPGASVKMSCKASGYTFTSYNMHWVKQTPGRGLEWIGAIYPGNGDTSYNQKFKGKATLTADKSSSTAYMQLSSLTSEDSAVYYCARSTYYGGDWYFNVWGAGTTVTVSAASTKGPSVFPLAPSSKSTSGGTAALGCLVKDYFPEPVTVSWNSGALTSGVHTFPAVLQSSGLYSLSSVVTVPSSSLGTQTYICNVNHKPSNTKVDKKAEPKSCDKTHTCPPCPAPELLGGPDVFLFPPKPKDTLMISRTPEVTCVVVDVSHEDPEVKFNWYVDGVEVHNAKTKPREEQYNSTYRVVSVLTVLHQDWLNGKEYKCKVSNKALPAPEEKTISKAKGQPREPQVYVLPPSRDELTKNQVSLLCLVKGFYPSDIAVEWESNGQPENNYLTWPPVLDSDGSFFLYSKLTVDKSRWQQGNVFSCSVMHEALHNHYTQKSLSLSPGK
chain: CPPCPAPELLGGPDVFLFPPKPKDTLMISRTPEVTCVVVDVSHEDPEVKFNWYVDGVEVHNAKTKPREEQYNSTYRVVSVLTVLHQDWLNGKEYKCKVSNKALPAPEEKTISKAKGQPREPQVYVYPPSRDELTKNQVSLTCLVKGFYPSDIAVEWESNGQPENNYKTTPPVLDSDGSFALVSKLTVDKSRWQQGNVFSCSVMHEALHNHYTQKSLSLSPGK
B2: Rc66SIDE-P4-Rc66SIDE (antibody, human IgG1, kappa)
light: B1 light
heavy: B1 heavy
chain: B1 chain
B3: Rc66SIDE-P16-Rc66SIDE (antibody, human IgG1, kappa)
light: B1 light
heavy: B1 heavy
chain: B1 chain
B4: Rc66SIDE-P28-Rc66SIDE (antibody, human IgG1, kappa)
light: B1 light
heavy: B1 heavy
chain: B1 chain
B5: B19c66 (one-arm antibody) (antibody, human IgG1, kappa)
light: not shown
heavy: not shown
chain: B1 chain with D14S, E107I
B6: B19c66AAC9 (one-arm antibody) (antibody, human IgG1, kappa)
light: not shown
heavy: QVQLQQSGAELVRPGSSVKISCKASGYAFSSYWMNWVKQRPGQGLEWIGQIWPGDGDTNYNGKFKGKATLTADESSSTAYMQLSSLASEDSAVYFCARRETTTVGRYYYAMDYWGQGTTVTVSSASTKGPSVFPLAPSSKSTSGGTAALGCLVKDYFPEPVTVSWNSGALTSGVHTFPAVLQSSGLYSLSSVVTVPSSSLGTQTYICNVNHKPSNTKVDKKVEPKSCDKTHTCPPCPAPKRRGGPSVFLFPPKPKDTLMISRTPEVTCVVVDVSHEDPEVKFNWYVDGVEVHNAKTKPREEQYNSTYRVVSVLTVLHQDWLNGKEYKCKVSNKALPAPIEKTISKAKGQPREPQVYVLPPSRDELTKNQVSLLCLVKGFYPSDIAVEWESNGQPENNYLTWPPVLDSDGSFFLYSKLTVDKSRWQQGNVFSCSVMHEALHNHYTQKSLSLSPGK
chain: B1 chain with L9D, L10E, D14S, E107I

What follows are binders tested against recombinant human Fc gamma receptor CD16b (FcRγIIIb) (human, UniProt O75015 17-200).
recombinant human Fc gamma receptor CD16b (FcRγIIIb), sequence (O75015 17-200 limits assumed): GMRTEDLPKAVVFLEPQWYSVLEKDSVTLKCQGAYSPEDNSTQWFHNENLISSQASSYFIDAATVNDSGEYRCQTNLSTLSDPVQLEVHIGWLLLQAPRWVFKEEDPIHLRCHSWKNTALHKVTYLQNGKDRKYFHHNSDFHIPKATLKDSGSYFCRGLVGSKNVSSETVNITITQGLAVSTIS
B1 gave a Kd of 163 nM. B2 gave a Kd of 1.05 nM. In the case of B3, the Kd is reported as less than 0.001 nM. With B4 the Kd was 5.64 nM.

What follows are binders tested against T1, recombinant human Fc gamma receptor CD32b/c (human, UniProt P31994 46-217).
T1 sequence (looked up): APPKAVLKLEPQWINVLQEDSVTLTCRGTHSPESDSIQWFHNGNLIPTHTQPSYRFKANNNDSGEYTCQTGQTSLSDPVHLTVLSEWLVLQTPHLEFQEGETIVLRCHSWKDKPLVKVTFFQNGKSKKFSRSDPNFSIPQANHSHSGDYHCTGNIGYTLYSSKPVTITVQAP
B1 showed a Kd of 253 nM. Work on B2 yielded a Kd of 3.17 nM. B3 showed a Kd of 0.556 nM. For B4, the Kd was 7.28 nM.

What follows are binders tested against T2, recombinant human Fc gamma receptor CD32a 131R (human, UniProt P12318 36-218).
T2 sequence (looked up): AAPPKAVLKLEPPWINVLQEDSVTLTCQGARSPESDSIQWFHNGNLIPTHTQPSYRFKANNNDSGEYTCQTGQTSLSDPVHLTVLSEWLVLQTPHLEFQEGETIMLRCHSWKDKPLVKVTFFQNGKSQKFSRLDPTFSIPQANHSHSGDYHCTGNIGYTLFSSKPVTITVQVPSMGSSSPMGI
B1 gave a Kd of 202 nM. Binder B2 has a Kd of 4.93 nM. Work on B3 yielded a Kd of 1.83 nM. For B4, the Kd was 8.11 nM.

Each binder was assayed against recombinant human Fc gamma receptor CD16a 158F (FcRγIIIa) (human, UniProt P08637 17-208).
recombinant human Fc gamma receptor CD16a 158F (FcRγIIIa), sequence (P08637 17-208 limits assumed): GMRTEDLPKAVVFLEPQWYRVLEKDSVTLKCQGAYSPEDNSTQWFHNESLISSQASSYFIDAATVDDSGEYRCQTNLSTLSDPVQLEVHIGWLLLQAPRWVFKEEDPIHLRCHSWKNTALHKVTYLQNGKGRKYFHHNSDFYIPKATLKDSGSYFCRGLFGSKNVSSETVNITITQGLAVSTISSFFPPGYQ
In the case of B1, the Kd is reported as 76.8 nM. Binder B2 has a Kd of 3.87 nM. B3 gave a Kd of 2.71 nM. Binder B4 has a Kd of 6.62 nM.

Each binder was assayed against T3, recombinant human Fc gamma receptor CD32a 131H (human, UniProt P12318 36-218).
T3 sequence (looked up): T2 sequence (looked up) with R132H
Work on B1 yielded a Kd of 255 nM. With B2 the Kd was 2.54 nM. B3 gave a Kd of 0.808 nM. In the case of B4, the Kd is reported as 5.42 nM.

The binders below were run against T4, recombinant human Fc gamma receptor CD16a 158V (FcRγIIIa) (human, UniProt P08637 17-208).
T4 sequence (P08637 17-208 F176V limits assumed): as the sequence (P08637 17-208 limits assumed) above, with F160V counted along it
In the case of B1, the Kd is reported as 46.2 nM. B2 showed a Kd of 1.14 nM. B3 showed a Kd of 0.257 nM. B4 was tested, and the Kd was 4.98 nM.

These binders were tested against recombinant human Fc gamma receptor CD64 (FcRγI) (human, UniProt P12314 16-288).
recombinant human Fc gamma receptor CD64 (FcRγI), sequence (P12314 16-288 limits assumed): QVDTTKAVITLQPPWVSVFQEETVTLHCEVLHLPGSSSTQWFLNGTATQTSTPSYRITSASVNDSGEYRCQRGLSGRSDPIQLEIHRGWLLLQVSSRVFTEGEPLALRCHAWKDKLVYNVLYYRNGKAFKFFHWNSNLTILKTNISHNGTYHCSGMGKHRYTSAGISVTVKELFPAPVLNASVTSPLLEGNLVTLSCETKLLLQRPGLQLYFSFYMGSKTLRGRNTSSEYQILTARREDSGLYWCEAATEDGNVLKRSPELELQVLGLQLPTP
B2 was tested, and the Kd was less than 0.001 nM. B3 gave a Kd of less than 0.001 nM. B4 was tested, and the Kd was 1.14 nM.

Each binder was assayed against T5, CD20 Lipoparticles (UniProt P11836 1-297).
T5 sequence (looked up): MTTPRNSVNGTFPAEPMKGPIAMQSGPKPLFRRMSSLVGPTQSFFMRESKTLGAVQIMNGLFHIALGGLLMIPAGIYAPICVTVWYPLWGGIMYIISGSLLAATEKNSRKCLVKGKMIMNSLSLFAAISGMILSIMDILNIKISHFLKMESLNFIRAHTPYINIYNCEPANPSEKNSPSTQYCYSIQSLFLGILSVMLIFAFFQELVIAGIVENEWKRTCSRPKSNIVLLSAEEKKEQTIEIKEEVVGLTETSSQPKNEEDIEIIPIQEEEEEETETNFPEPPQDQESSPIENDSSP
B1 gave a Kd of 21.4 nM. B2 was tested, and the Kd was less than 0.001 nM. B3 was tested, and the Kd was less than 0.001 nM. In the case of B4, the Kd is reported as less than 0.001 nM.

These binders were tested against T6, CD19 (UniProt P15391 20-291).
T6 sequence (looked up): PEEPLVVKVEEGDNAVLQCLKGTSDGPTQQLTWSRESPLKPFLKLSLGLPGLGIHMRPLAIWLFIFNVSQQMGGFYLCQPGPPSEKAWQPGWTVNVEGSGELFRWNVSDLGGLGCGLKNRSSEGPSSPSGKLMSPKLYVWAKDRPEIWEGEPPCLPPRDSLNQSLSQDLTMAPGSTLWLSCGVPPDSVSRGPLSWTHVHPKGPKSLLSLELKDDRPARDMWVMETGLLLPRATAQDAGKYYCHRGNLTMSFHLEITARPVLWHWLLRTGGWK
B5 was tested, and the Kd was 21.8 nM. Binder B6 has a Kd of 21 nM.

Target: T4, recombinant human Fc gamma receptor …
Remark: another data set of the same source
B5 was tested, and the Kd was 234 nM.
